Laboratory results reported in patent US20240301022A1 (published 2024).

Target: human β1-adrenergic receptor (human, UniProt P08588 1-477)
Experiment: radioligand saturation binding, transfected CHO-K1

human β1-adrenergic receptor, sequence (P08588 whole entry): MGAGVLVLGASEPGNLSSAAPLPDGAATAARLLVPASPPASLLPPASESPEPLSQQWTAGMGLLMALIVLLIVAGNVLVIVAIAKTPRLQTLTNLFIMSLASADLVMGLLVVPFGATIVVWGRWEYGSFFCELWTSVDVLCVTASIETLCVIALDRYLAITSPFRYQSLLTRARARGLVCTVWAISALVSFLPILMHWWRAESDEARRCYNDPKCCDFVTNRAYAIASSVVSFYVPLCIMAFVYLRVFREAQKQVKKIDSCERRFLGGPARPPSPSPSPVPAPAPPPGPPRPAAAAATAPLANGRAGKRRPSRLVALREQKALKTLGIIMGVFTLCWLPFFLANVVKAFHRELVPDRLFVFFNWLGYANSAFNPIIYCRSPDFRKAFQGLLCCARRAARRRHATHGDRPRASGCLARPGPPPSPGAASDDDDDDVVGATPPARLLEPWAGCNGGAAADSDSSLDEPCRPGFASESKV

B1: recombinant human zinc-α2-glycoprotein (ZAG) (ligand)
chain: QENQDGRYSLTYIYTGLSKHVEDVPAFQALGSLNDLQFFRYNSKDRKSQPMGLWRQVEGMEDWKEDSQLQKAREDMETLKDIVEYYNDSNGSHVLQGRFGCEIENNRSSGAFWKYYYDGKDYIEFNKEIPAWVPFDPAAQITKQKWEAEPVYVQRAKAYLEEECPATLRKYLKYSKNILDRQDPPSVVVTSHQAPGEKKKLKCLAYDFYPGKIDVHWTRAGQVQEPELRGDVLHNGNGTYQSWVVVAVPPQDTAPYSCHVQHSSLAQPLVVPWEAS
modifications: 125I label (iodo bead labelling) in the membrane binding studies; labelled residues not stated
Kd: 493 nM
